Assay results as given in publication PMC9678776, “A higher plant FAD synthetase is fused to an inactivated FAD pyrophosphatase” (The Journal of Biological Chemistry, 2022).
One block for each molecule: values may come before it.

Assays:
[1] = target: T1, AtFADS1^trunc (Arabidopsis thaliana, UniProt Q9LZE4); assay: HPLC-fluorescence FAD synthetase assay, substrate-inhibition fit; format: biochemical; settings: substrate inhibition by FMN; ATP, zinc acetate 2 mM above ATP, Hepes-NaOH pH 7.0, 30 °C
T1 construct: gene FADS1; N-terminal FAD synthetase domain only, starting at native Met1
T1 sequence (Q9LZE4 1-254 limits assumed): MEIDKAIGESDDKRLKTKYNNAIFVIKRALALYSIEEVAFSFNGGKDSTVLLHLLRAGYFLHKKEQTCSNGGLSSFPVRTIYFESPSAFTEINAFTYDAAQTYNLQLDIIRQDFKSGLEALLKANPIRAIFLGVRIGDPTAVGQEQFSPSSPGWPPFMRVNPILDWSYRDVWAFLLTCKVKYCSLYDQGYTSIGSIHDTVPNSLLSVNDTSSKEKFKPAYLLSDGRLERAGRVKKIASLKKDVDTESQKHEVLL
Description: HPLC-fluorescence FAD synthetase assay, substrate-inhibition fit on AtFADS1^trunc

[2] = target: T2, AtFADS1 (Arabidopsis thaliana, UniProt Q9LZE4); assay: as above; format: biochemical; settings: substrate inhibition by FMN; 10 mM ATP, zinc acetate 2 mM above ATP, Hepes-NaOH pH 7.0, 30 °C
T2 construct: gene FADS1; N-terminus from primer MEIDKA
T2 sequence (Q9LZE4 1-497): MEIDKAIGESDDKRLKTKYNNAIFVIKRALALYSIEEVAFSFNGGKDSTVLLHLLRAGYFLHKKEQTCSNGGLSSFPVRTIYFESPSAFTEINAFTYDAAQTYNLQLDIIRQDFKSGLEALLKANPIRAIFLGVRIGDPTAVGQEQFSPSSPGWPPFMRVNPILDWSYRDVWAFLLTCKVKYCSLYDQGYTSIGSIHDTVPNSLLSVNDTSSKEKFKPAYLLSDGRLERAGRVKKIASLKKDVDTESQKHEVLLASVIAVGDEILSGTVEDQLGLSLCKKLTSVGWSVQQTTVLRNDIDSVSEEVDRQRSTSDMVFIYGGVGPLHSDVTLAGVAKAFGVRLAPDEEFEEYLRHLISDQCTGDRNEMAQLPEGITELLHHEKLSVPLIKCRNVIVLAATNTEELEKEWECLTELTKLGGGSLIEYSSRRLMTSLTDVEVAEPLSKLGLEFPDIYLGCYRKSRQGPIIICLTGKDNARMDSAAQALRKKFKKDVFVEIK
Description: HPLC-fluorescence FAD synthetase assay, substrate-inhibition fit on AtFADS1

[3] = target: T3, CrFADS1 (Chlamydomonas reinhardtii, UniProt A0A2K3D179); assay: as above; format: biochemical; settings: substrate inhibition by FMN; 10 mM ATP, zinc acetate 2 mM above ATP, Hepes-NaOH pH 7.0, 30 °C
T3 construct: gene FADS1; bifunctional fusion
T3 sequence (A0A2K3D179 1-582): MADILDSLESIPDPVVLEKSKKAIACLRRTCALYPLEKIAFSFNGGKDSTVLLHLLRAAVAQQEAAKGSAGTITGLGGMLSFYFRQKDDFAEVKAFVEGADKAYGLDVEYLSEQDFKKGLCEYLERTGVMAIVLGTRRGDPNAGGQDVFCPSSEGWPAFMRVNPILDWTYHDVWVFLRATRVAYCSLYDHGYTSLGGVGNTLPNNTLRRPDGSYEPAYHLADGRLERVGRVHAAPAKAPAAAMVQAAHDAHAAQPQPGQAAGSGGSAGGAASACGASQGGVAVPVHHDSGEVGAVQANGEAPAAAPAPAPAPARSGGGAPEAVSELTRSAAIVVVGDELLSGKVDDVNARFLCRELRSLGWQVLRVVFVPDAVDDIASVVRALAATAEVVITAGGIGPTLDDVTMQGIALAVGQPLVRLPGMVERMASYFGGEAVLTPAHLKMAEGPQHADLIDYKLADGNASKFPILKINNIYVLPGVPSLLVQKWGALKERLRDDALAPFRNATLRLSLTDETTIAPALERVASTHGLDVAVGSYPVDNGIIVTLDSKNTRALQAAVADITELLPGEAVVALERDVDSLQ
Description: (§1) HPLC-fluorescence FAD synthetase assay, substrate-inhibition fit on CrFADS1

[4] = substrate: Nc1ncnc2c1ncn2[C@@H]1O[C@H](COP(=O)(O)OP(=O)(O)OP(=O)(O)O)[C@@H](O)[C@H]1O; assay: HPLC-fluorescence FAD synthetase assay, Michaelis-Menten; format: biochemical, Arabidopsis thaliana; settings: FAD synthetase activity, 15 μM FMN, zinc acetate 2 mM above ATP, Hepes-NaOH pH 7.0, 30 °C
Description: HPLC-fluorescence FAD synthetase assay, Michaelis-Menten on […]1

[5] = substrate: Cc1cc2nc3c(=O)[nH]c(=O)nc-3n(C[C@H](O)[C@H](O)[C@H](O)COP(=O)(O)OP(=O)(O)OC[C@H]3O[C@@H](n4cnc5c(N)ncnc54)[C@H](O)[C@@H]3O)c2cc1C; assay: HPLC-fluorescence FAD pyrophosphatase assay, Michaelis-Menten; format: biochemical, Chlamydomonas reinhardtii; settings: FAD pyrophosphatase activity, 2 mM CoCl2, 200 mM KCl, Hepes-NaOH pH 7.0, 30 °C
Description: HPLC-fluorescence FAD pyrophosphatase assay, Michaelis-Menten on […]1

[6] = substrate: Cc1cc2nc3c(=O)[nH]c(=O)nc-3n(C[C@H](O)[C@H](O)[C@H](O)COP(=O)(O)O)c2cc1C; assay: HPLC-fluorescence FAD synthetase assay, substrate-inhibition fit; format: biochemical, Chlamydomonas reinhardtii; settings: FAD synthetase activity, 10 mM ATP, zinc acetate 2 mM above ATP, Hepes-NaOH pH 7.0, 30 °C
Description: as §1

Ki [1]: 32.7 ± 18.2 µM
Ki [2]: 190 ± 36 µM
Ki [3]: 336 ± 66 µM
Molecule: Cc1cc2nc3c(=O)[nH]c(=O)nc-3n(C[C@H](O)[C@H](O)[C@H](O)COP(=O)(O)O)c2cc1C [FMN]

B1: AtFADS1 (Arabidopsis thaliana) (protein)
chain: MEIDKAIGESDDKRLKTKYNNAIFVIKRALALYSIEEVAFSFNGGKDSTVLLHLLRAGYFLHKKEQTCSNGGLSSFPVRTIYFESPSAFTEINAFTYDAAQTYNLQLDIIRQDFKSGLEALLKANPIRAIFLGVRIGDPTAVGQEQFSPSSPGWPPFMRVNPILDWSYRDVWAFLLTCKVKYCSLYDQGYTSIGSIHDTVPNSLLSVNDTSSKEKFKPAYLLSDGRLERAGRVKKIASLKKDVDTESQKHEVLLASVIAVGDEILSGTVEDQLGLSLCKKLTSVGWSVQQTTVLRNDIDSVSEEVDRQRSTSDMVFIYGGVGPLHSDVTLAGVAKAFGVRLAPDEEFEEYLRHLISDQCTGDRNEMAQLPEGITELLHHEKLSVPLIKCRNVIVLAATNTEELEKEWECLTELTKLGGGSLIEYSSRRLMTSLTDVEVAEPLSKLGLEFPDIYLGCYRKSRQGPIIICLTGKDNARMDSAAQALRKKFKKDVFVEIK
notes: N-terminus from primer MEIDKA
Km [4]: 665 ± 11 µM
kcat [4]: 0.287 ± 0.011 s⁻¹
kcat/Km [4]: 432 ± 18 M⁻¹ s⁻¹

B2: CrFADS1 (Chlamydomonas reinhardtii) (protein)
chain: MADILDSLESIPDPVVLEKSKKAIACLRRTCALYPLEKIAFSFNGGKDSTVLLHLLRAAVAQQEAAKGSAGTITGLGGMLSFYFRQKDDFAEVKAFVEGADKAYGLDVEYLSEQDFKKGLCEYLERTGVMAIVLGTRRGDPNAGGQDVFCPSSEGWPAFMRVNPILDWTYHDVWVFLRATRVAYCSLYDHGYTSLGGVGNTLPNNTLRRPDGSYEPAYHLADGRLERVGRVHAAPAKAPAAAMVQAAHDAHAAQPQPGQAAGSGGSAGGAASACGASQGGVAVPVHHDSGEVGAVQANGEAPAAAPAPAPAPARSGGGAPEAVSELTRSAAIVVVGDELLSGKVDDVNARFLCRELRSLGWQVLRVVFVPDAVDDIASVVRALAATAEVVITAGGIGPTLDDVTMQGIALAVGQPLVRLPGMVERMASYFGGEAVLTPAHLKMAEGPQHADLIDYKLADGNASKFPILKINNIYVLPGVPSLLVQKWGALKERLRDDALAPFRNATLRLSLTDETTIAPALERVASTHGLDVAVGSYPVDNGIIVTLDSKNTRALQAAVADITELLPGEAVVALERDVDSLQ
notes: bifunctional fusion
Km [5]: 4.88 ± 0.56 µM
kcat [5]: 0.395 ± 0.011 s⁻¹
kcat/Km [5]: 81000 ± 9600 M⁻¹ s⁻¹
Km [6]: 0.54 ± 0.09 µM
kcat [6]: 0.103 ± 0.004 s⁻¹
kcat/Km [6]: 191000 ± 33000 M⁻¹ s⁻¹
